Substitutions are numbered along the chain they refer to.
Legend:
Assay in all cases: ELISA; antibody coated, FLAG-tagged RBD mutant, anti-FLAG-HRP detection
Ang2 RBD mutant P419 = target: T1, Ang2 RBD mutant P419 (human, UniProt O15123 276-496)
T1 chain: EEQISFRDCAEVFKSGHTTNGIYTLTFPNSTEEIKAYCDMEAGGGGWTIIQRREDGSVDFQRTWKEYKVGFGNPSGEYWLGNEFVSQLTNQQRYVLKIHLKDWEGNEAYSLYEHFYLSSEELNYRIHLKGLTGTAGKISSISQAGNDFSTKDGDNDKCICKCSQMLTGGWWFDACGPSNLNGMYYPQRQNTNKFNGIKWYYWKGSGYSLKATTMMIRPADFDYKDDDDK

Ang2 RBD mutant Y460 = target: T2, Ang2 RBD mutant Y460 (human, UniProt O15123 276-496)
T2 chain: T1 chain with A144P, Y185A

Ang2 RBD mutant Q418 = target: T3, Ang2 RBD mutant Q418 (human, UniProt O15123 276-496)
T3 chain: T1 chain with Q143A, A144P

Ang2 RBD mutant D448 = target: T4, Ang2 RBD mutant D448 (human, UniProt O15123 276-496)
T4 chain: T1 chain with A144P, D173A

Ang2 RBD mutant S417 = target: T5, Ang2 RBD mutant S417 (human, UniProt O15123 276-496)
T5 chain: T1 chain with S142A, A144P

Ang2 RBD mutant K468 = target: T6, Ang2 RBD mutant K468 (human, UniProt O15123 276-496)
T6 chain: T1 chain with A144P, K193A

Binding (%) (mutant Ang2 / native Ang2) (Ang2 RBD mutant P419): 102%
Binding (%) (mutant Ang2 / native Ang2) (Ang2 RBD mutant Y460): 8.3%
Binding (%) (mutant Ang2 / native Ang2) (Ang2 RBD mutant Q418): 97.2%
Binding (%) (mutant Ang2 / native Ang2) (Ang2 RBD mutant D448): 95.3%
Binding (%) (mutant Ang2 / native Ang2) (Ang2 RBD mutant S417): 100%
Binding (%) (mutant Ang2 / native Ang2) (Ang2 RBD mutant K468): 27.3%
B1: SAIT-ANG2-AB-m1A10 (antibody, V domains shown)
VH: QVQLQQSGAELMKPGASVKISCKATDYTFSSYWLEWLIQRPGHGLEWIGEILPGSGSTNYNEKFRGKATFTEDTSSNTAYMQLSSLTSEDSAVYYCARGNHNSYYYAMDYWGQGTSVTVSS
VL: DIVLTQSPASLAVSLGQRATISCRASESVDSYGNSFMHWYQQKPGQPPKLLIYRASNLDSGIPARFSGSGSRTDFTLTINPVEADDVATYYCQQSNEDPLTFGAGTKLELK
notes: also called hybridoma KCLRF-BP-00306

Reference: US20150210761A1 (SAMSUNG ELECTRONICS, published 2015)
